Measured values as given in patent US20110171222A1 (Hoffmann-La Roche, published 2011).
Positions count from the first letter of the chain named.

B1: U1-53 (antibody, from another filing, V domains shown)
VH: EVQLVESGGGLVQPGGSLRLSCAASGFTFSIYSMNWVRQAPGKGLEWVSYISSSSSTIYYADSVKGRFTISRDNAKNSLYLQMNSLRDEDTAVYYCARDRGDFDAFDIWGQGTMVTVSS
VL: DIQMTQSPSSLSASVGDRVTITCQASQDITNYLNWYQQKPGKAPKLLIYDASNLETGVPSRFSGSGSGTDFTFTISSLQPEDIATYNCQQCENFPITFGQGTRLEIK
B2: Mab 205.10.1 (antibody, V domains shown)
VH: QVQLVQSGAEVKKPGASVKVSCKASGYTFRSSYISWVRQAPGQGLEWMGWIYAGTGSPSYNQKLQGRVTMTTDTSTSTAYMELRSLRSDDTAVYYCARHRDYYSNSLTYWGQGTLVTVSS
VL: DIVMTQSPDSLAVSLGERATINCKSSQSLLNSGNQKNYLTWYQQKPGQPPKLLIYWASTRESGVPDRFSGSGSGTDFTLTISSLQAEDVAVYYCQSDYSYPYTFGQGTKLEIK
notes: Humanized antibody; Only the variable domains are tied to it; The assays detected it with anti-human IgG or captured it with anti-Fc gamma
B3: Mab 205.10.3 (antibody, human IgG1, V domains shown)
VH: B2 VH
VL: B2 VL with A90S, V91I
notes: Humanized antibody; Only the variable domains are tied to it

How the values were obtained:
[1] = target: HER3 on MCF7, FaDu and Mel-Juso tumor cells (human) (UniProt P21860); experiment: cell-based or functional assay
[2] = target: T1, Soluble human HER3 extracellular domain fused to Streptavidin Binding Protein (SBP) (human, UniProt P21860 20-643); experiment: ratio of the concentration by HER3-ECD ELISA to the concentration by IgG ELISA
T1 construct: It was used as HEK293 supernatant captured on streptavidin plates; also called SBP-HER3

[3] = target: T1, Soluble human HER3 extracellular domain …; experiment: ELISA, SBP-HER3 ECD captured on streptavidin plate, anti-human IgG-HRP detection
Procedure: Soluble human HER3 extracellular domain fused to Streptavidin Binding Protein (SBP) was captured on a streptavidin plate. […] For the standard coating, SBP-HER3 containing HEK293 supernatant was diluted (between 1:15 and 1:40) and incubated overnight at 2-80 C (25 μl per well). Intensive washing of the microtiter plate was necessary to remove remaining unbound SBP-HER3.
Antibodies were tested either undiluted or using a 12-step-dilution. 12.5 μl per well of each sample was incubated for 90 min at room temperature.

[4] = target: T2, human HER3 ECD (human, UniProt P21860 20-643); experiment: SPR (Biacore T100), antibody captured by anti-Fc gamma, HER3 ECD as analyte, 25 °C, 1:1 Langmuir model
T2 construct: also called hHER3-ECD; hu-HER3-ECD
Procedure: After conjugation, anti-HER3 antibodies were injected at 25° C. at a flow rate of 5 μL/min, followed by a dilution series (0 nM to 1000 nM) of human HER3 ECD at 30 μL/min. As running buffer for the binding experiment PBS/0.1% BSA was used. The chip was then regenerated with a 60 s pulse of 10 mM glycine-HCl, pH 2.0 solution.
Calculation of thermodynamic parameters (KD, binding constant to HER3) were calculated using a Langmuir 1:1 binding model.

| Binder | pHER3 % inhibition [0.1 µg/ml], MCF7 cells [1] [%] | pHER3 % inhibition [1.0 µg/ml], MCF7 cells [1] [%] | activity (ratio binding to hu_HER3-ECD/IgG) [2] | hu_HER3-ECD-ELISA c [3] [µg/mL] | Kd [4] [nM] |
| --- | --- | --- | --- | --- | --- |
| B1 | 54 | 51 | – | – | – |
| B2 | – | – | 0.74 | 583 | 2 |
| B3 | – | – | 0.83 | 505 | 2 |
